The experiment deals with His-tagged domains of human FcγRII (R&D Systems, Cat # 1330-CD) (human) (UniProt P12318). Put plainly: SPR (Biacore 3000), His-tagged receptor captured by penta-His antibody on CM5 chip, antibody injected; RU relative to control. Background: SPR reads the build-up and loss of mass on a sensor chip optically.

The results in this text go back to patent publication US20090155256A1.

As to “Bapineuzumab (humanized 3D6, human IgG1, no Fc mutations) (antibody)”, the Relative Binding Capability (%) was determined as 100%.
